B1: hu5E3-IgG1 (antibody, V domains shown)
VH: QVQLQQSGPEVKKPGASVKISCKASGYIFTSYYIQWVIHAPGQGLEWIGWIYPGNVNTKYNEKFKGKATLTADKSSSTAYMELSSLTSEDTAVYFCARMDYEAHYWGQGTTVTVSS
VL: DIQMTQSPSSLSASVGDRVTITCRASQEISGYLTWLQQKPEGAIKRLIYAASTLDSGVPKRFSGSRSGSDYSLTISSLQPEDFATYNCLQYANYPRTFGGGTKLEIK
notes: human IgG1/kappa; also called humanized 5E3 IgG1; IHA variant
B2: hu5E3-IgG2 (antibody, V domains shown)
VH: B1 VH
VL: B1 VL
notes: human IgG2/kappa; also called humanized 5E3 IgG2

Target: T1, cSNK:BSA conjugate (bovine, head-to-tail cyclized; conjugated to BSA carrier)
T1 construct: also called BSA-cSNK
T1 sequence (P02769 25-607 limits assumed): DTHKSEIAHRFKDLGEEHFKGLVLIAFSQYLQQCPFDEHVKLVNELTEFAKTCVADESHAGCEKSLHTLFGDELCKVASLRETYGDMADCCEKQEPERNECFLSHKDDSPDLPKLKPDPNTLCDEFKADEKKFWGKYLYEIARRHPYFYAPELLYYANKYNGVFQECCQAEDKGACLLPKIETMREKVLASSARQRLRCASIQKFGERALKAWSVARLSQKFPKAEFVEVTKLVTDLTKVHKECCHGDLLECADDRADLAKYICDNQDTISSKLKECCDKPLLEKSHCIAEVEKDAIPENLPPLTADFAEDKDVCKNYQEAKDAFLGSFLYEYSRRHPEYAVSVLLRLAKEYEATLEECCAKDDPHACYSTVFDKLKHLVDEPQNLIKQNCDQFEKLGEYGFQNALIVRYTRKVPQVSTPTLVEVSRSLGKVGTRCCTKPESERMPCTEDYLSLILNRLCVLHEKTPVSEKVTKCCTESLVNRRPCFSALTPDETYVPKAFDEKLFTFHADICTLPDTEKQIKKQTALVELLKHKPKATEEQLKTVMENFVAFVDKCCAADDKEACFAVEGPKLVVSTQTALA
Experiment: BLI 2:1 fit, site 1; 25 nM row
Procedure: (§1) Biolayer interferometry (Octet […], ForteBio) was used to qualitatively/quantitatively assess the interactions between humanized versions of 5E3 and cSNK:BSA conjugate. […] MAbs were loaded onto sensors and then washed in PBST. Each sensor was associated with one of several cSNK:BSA standards (100 nM to 0 nM) and then washed in PBST. Data was processed statistically using ForteBio Data Analysis software to determine the strength of antigen-antibody binding (KD). For each mAb analyzed, a 2:1 model provided the “best fit”.

Binder | Kd | koff | kon
B1 | 0.463 nM | 0.000825 s⁻¹ | 1.78e+06 M⁻¹ s⁻¹
B2 | 1.18 nM | 0.000762 s⁻¹ | 644000 M⁻¹ s⁻¹

Target: T1, cSNK:BSA conjugate
Experiment: BLI 2:1 fit, site 1; 50 nM row
Procedure: as §1

Binder | Kd | koff | kon
B1 | 0.463 nM | 0.000825 s⁻¹ | 1.78e+06 M⁻¹ s⁻¹
B2 | 1.18 nM | 0.000762 s⁻¹ | 644000 M⁻¹ s⁻¹

Target: T1, cSNK:BSA conjugate
Experiment: BLI 2:1 fit, site 1; 100 nM row
Procedure: as §1

Binder | Kd | koff | kon
B2 | 1.18 nM | 0.000762 s⁻¹ | 644000 M⁻¹ s⁻¹

Target: T1, cSNK:BSA conjugate
Experiment: BLI 2:1 fit, site 1; 12.5 nM row
Procedure: as §1

Binder | Kd | koff | kon
B1 | 0.463 nM | 0.000825 s⁻¹ | 1.78e+06 M⁻¹ s⁻¹
B2 | 1.18 nM | 0.000762 s⁻¹ | 644000 M⁻¹ s⁻¹

Target: T1, cSNK:BSA conjugate
Experiment: BLI 2:1 fit, site 1; 3.13 nM row
Procedure: as §1

Binder | Kd | koff | kon
B1 | 0.463 nM | 0.000825 s⁻¹ | 1.78e+06 M⁻¹ s⁻¹
B2 | 1.18 nM | 0.000762 s⁻¹ | 644000 M⁻¹ s⁻¹

Target: T1, cSNK:BSA conjugate
Experiment: BLI 2:1 fit, site 1; 6.25 nM row
Procedure: as §1

Binder | Kd | koff | kon
B1 | 0.463 nM | 0.000825 s⁻¹ | 1.78e+06 M⁻¹ s⁻¹
B2 | 1.18 nM | 0.000762 s⁻¹ | 644000 M⁻¹ s⁻¹

Target: T1, cSNK:BSA conjugate
Experiment: BLI 2:1 fit, site 1; 1.56 nM row
Procedure: as §1

Binder | Kd | koff | kon
B1 | 0.463 nM | 0.000825 s⁻¹ | 1.78e+06 M⁻¹ s⁻¹

Target: T1, cSNK:BSA conjugate
Experiment: BLI (Octet), 1:1 model, BSA-cSNK
Procedure: Biolayer interferometry (Octet Red92, ForteBio) was used to qualitatively/quantitatively assess the interactions between humanized 5E3 and Δ5E3 mAbs to the cSNK:BSA conjugate. […] MAbs were loaded onto sensors and then washed in PBST. Each sensor was associated with one of several cSNK:BSA standards (100 nM to 0 nM) and then washed in PBST. Data was processed statistically using ForteBio Data Analysis software to determine the strength of antigen-antibody binding (KD). For each mAb analyzed, a 1:1 model provided the “best fit”.

Binder | Kd
B1 | 2.01 nM
B2 | 0.326 nM

Target: T1, cSNK:BSA conjugate
Experiment: BLI 2:1 fit, site 2 (KD2); 50 nM row
Procedure: as §1

Binder | Kd
B1 | 1.82 nM
B2 | 6.39 nM

Target: T1, cSNK:BSA conjugate
Experiment: BLI 2:1 fit, site 2 (KD2); 25 nM row
Procedure: as §1

Binder | Kd
B1 | 1.82 nM
B2 | 6.39 nM

Target: T1, cSNK:BSA conjugate
Experiment: BLI 2:1 fit, site 2 (kon2); 50 nM row
Procedure: as §1

Binder | kon
B1 | 6.56e+06 M⁻¹ s⁻¹
B2 | 5.28e+06 M⁻¹ s⁻¹

Target: T1, cSNK:BSA conjugate
Experiment: BLI 2:1 fit, site 2 (KD2); 100 nM row
Procedure: as §1

Binder | Kd
B2 | 6.39 nM

Target: T1, cSNK:BSA conjugate
Experiment: BLI 2:1 fit, site 2 (KD2); 6.25 nM row
Procedure: as §1

Binder | Kd
B1 | 1.82 nM
B2 | 6.39 nM

Target: T1, cSNK:BSA conjugate
Experiment: BLI 2:1 fit, site 2 (kdis2); 50 nM row
Procedure: as §1

Binder | koff
B1 | 0.012 s⁻¹
B2 | 0.0338 s⁻¹

Target: T1, cSNK:BSA conjugate
Experiment: BLI 2:1 fit, site 2 (KD2); 1.56 nM row
Procedure: as §1

Binder | Kd
B1 | 1.82 nM

Target: T1, cSNK:BSA conjugate
Experiment: BLI 2:1 fit, site 2 (KD2); 12.5 nM row
Procedure: as §1

Binder | Kd
B1 | 1.82 nM
B2 | 6.39 nM

Target: T1, cSNK:BSA conjugate
Experiment: BLI 2:1 fit, site 2 (kon2); 3.13 nM row
Procedure: as §1

Binder | kon
B1 | 6.56e+06 M⁻¹ s⁻¹
B2 | 5.28e+06 M⁻¹ s⁻¹

Target: T1, cSNK:BSA conjugate
Experiment: BLI 2:1 fit, site 2 (kon2); 6.25 nM row
Procedure: as §1

Binder | kon
B1 | 6.56e+06 M⁻¹ s⁻¹
B2 | 5.28e+06 M⁻¹ s⁻¹

Target: T1, cSNK:BSA conjugate
Experiment: BLI 2:1 fit, site 2 (kon2); 1.56 nM row
Procedure: as §1

Binder | kon
B1 | 6.56e+06 M⁻¹ s⁻¹

Target: T1, cSNK:BSA conjugate
Experiment: BLI 2:1 fit, site 2 (kon2); 12.5 nM row
Procedure: as §1

Binder | kon
B1 | 6.56e+06 M⁻¹ s⁻¹
B2 | 5.28e+06 M⁻¹ s⁻¹

Target: T1, cSNK:BSA conjugate
Experiment: BLI 2:1 fit, site 2 (kdis2); 6.25 nM row
Procedure: as §1

Binder | koff
B1 | 0.012 s⁻¹
B2 | 0.0338 s⁻¹

Target: T1, cSNK:BSA conjugate
Experiment: BLI 2:1 fit, site 2 (kdis2); 1.56 nM row
Procedure: as §1

Binder | koff
B1 | 0.012 s⁻¹

Target: T1, cSNK:BSA conjugate
Experiment: BLI (Octet RED96), 2:1 kinetics, KD1, summary table
Procedure: as §1
(§2) Table 7 summarizes the affinity constants of humanized 5E3 IgG1, IgG2 and IgG4 constructs. The KD ranges were determined using 2:1 kinetics of binding of analyte (BSA-cSNK) in solution to two different binding sites on the surface (immobilized bivalent, monospecific 5E3) in comparison to murine 5E3 using biolayer interferometry (Octet RED96).

Binder | Kd
B1 | 0.463 nM
B2 | 1.18 nM

Target: T1, cSNK:BSA conjugate
Experiment: BLI (Octet RED96), 2:1 kinetics, KD2, summary table
Procedure: as §1, §2

Binder | Kd
B1 | 0.182 nM
B2 | 6.39 nM

From US20170008955A1 (CNJ, published 2017)
